In patent US20250262210A1 (TRUSTEES OF COLUMBIA UNIVERSITY IN THE CITY OF NEW YORK, published 2025):

Experiments:
Assay in all cases: IP/MS, LZTR1 R810W-FLAG, U87
TRIO = TRIO (human, UniProt O75962 1-3097, limits assumed)
Procedure, shortened: (§1)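 Extracted peptides in 3% acetonitrile/0.1% formic acid ran on a 50 cm C18 column into an Orbitrap Fusion, with MaxQuant identification and spectral counting.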

BRCA2 = BRCA2 (human, UniProt P51587 1-3418)
Procedure, shortened: as §1

RALGAPB = target: T1, RALGAPB (human, UniProt Q86X10 1-1494, limits assumed)
T1 sequence (looked up): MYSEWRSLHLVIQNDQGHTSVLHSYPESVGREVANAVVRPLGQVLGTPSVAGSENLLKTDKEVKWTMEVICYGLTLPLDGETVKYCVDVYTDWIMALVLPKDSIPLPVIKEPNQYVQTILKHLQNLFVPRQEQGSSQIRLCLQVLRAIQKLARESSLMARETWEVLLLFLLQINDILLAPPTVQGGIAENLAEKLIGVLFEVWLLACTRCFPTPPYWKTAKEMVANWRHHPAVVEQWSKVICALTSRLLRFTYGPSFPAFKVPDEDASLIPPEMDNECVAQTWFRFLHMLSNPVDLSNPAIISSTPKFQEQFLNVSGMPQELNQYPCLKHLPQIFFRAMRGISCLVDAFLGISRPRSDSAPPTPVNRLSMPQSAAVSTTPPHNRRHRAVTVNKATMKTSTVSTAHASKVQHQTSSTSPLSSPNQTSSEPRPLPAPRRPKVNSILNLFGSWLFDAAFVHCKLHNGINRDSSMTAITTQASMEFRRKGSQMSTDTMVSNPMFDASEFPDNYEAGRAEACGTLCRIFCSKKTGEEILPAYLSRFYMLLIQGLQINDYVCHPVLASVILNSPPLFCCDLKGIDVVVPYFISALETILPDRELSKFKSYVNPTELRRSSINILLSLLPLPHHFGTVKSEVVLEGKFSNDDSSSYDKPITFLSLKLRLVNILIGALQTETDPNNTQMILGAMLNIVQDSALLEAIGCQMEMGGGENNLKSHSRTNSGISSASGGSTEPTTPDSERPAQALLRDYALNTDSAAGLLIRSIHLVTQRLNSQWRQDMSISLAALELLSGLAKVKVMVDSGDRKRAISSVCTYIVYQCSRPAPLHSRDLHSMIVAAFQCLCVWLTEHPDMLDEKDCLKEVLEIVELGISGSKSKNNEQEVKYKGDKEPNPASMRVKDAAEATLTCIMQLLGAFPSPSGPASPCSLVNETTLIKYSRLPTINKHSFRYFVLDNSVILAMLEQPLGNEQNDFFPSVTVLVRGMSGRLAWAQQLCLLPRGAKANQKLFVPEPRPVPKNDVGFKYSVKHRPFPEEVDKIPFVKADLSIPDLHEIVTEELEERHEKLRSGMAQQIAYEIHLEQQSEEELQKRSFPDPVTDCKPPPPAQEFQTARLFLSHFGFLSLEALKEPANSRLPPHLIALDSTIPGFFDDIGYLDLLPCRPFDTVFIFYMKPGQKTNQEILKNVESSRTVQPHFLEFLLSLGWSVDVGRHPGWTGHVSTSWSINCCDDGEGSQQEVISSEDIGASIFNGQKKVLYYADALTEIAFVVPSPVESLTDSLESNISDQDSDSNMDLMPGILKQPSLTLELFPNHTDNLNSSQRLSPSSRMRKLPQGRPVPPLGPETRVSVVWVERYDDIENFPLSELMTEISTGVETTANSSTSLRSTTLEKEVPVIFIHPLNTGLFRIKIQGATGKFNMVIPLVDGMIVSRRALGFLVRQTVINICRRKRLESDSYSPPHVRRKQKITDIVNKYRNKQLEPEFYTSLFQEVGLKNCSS
Procedure, shortened: as §1

EIF2AK4 = EIF2AK4 (human, UniProt Q9P2K8 1-1649, limits assumed)
Sequence of EIF2AK4 (Q9P2K8 whole entry): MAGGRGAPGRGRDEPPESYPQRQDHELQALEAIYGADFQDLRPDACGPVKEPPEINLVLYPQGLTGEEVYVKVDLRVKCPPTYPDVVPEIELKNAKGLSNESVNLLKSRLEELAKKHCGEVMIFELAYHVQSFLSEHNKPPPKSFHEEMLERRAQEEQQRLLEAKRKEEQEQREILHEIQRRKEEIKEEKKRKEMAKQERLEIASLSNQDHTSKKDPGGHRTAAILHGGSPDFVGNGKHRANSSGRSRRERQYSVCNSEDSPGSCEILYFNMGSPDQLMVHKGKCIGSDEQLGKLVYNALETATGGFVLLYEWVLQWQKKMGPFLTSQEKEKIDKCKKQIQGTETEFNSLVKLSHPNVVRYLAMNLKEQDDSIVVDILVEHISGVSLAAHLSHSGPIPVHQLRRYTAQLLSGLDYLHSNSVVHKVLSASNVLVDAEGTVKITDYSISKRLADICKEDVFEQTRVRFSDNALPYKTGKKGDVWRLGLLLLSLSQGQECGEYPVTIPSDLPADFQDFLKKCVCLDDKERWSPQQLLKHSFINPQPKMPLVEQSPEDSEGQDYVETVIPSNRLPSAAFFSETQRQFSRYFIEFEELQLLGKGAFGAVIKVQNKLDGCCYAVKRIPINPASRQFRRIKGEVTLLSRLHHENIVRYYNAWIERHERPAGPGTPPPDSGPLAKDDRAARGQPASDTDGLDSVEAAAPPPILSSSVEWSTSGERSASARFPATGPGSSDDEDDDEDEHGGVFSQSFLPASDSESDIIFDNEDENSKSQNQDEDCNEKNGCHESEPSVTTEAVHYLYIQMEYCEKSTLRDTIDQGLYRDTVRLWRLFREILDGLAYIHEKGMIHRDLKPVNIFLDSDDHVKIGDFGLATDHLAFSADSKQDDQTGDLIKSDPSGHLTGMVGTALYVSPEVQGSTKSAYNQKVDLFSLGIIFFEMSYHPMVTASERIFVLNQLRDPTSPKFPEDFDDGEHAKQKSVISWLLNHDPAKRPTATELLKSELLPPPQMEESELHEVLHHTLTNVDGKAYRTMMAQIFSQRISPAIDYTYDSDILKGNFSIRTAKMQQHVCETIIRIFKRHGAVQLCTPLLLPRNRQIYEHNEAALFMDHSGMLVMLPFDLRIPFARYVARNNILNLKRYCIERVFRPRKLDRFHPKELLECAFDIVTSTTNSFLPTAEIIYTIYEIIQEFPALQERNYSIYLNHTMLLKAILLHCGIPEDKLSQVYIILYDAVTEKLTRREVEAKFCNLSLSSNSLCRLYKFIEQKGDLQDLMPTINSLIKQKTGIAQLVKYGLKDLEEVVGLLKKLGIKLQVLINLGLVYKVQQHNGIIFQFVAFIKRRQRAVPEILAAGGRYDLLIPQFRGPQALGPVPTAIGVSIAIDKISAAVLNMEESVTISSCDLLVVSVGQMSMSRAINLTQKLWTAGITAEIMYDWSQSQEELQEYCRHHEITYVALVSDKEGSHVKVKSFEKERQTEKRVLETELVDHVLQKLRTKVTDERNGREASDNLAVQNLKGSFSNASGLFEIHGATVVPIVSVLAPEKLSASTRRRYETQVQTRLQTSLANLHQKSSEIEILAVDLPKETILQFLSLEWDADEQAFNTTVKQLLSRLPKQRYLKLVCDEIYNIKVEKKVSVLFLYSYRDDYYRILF
Procedure, shortened: as §1

MTOR = MTOR (human, UniProt P42345 1-2549)
Procedure, shortened: as §1

CRYBG1 = CRYBG1 (human, UniProt Q9Y4K1 1-2131, limits assumed)
Sequence of CRYBG1 (Q9Y4K1 whole entry): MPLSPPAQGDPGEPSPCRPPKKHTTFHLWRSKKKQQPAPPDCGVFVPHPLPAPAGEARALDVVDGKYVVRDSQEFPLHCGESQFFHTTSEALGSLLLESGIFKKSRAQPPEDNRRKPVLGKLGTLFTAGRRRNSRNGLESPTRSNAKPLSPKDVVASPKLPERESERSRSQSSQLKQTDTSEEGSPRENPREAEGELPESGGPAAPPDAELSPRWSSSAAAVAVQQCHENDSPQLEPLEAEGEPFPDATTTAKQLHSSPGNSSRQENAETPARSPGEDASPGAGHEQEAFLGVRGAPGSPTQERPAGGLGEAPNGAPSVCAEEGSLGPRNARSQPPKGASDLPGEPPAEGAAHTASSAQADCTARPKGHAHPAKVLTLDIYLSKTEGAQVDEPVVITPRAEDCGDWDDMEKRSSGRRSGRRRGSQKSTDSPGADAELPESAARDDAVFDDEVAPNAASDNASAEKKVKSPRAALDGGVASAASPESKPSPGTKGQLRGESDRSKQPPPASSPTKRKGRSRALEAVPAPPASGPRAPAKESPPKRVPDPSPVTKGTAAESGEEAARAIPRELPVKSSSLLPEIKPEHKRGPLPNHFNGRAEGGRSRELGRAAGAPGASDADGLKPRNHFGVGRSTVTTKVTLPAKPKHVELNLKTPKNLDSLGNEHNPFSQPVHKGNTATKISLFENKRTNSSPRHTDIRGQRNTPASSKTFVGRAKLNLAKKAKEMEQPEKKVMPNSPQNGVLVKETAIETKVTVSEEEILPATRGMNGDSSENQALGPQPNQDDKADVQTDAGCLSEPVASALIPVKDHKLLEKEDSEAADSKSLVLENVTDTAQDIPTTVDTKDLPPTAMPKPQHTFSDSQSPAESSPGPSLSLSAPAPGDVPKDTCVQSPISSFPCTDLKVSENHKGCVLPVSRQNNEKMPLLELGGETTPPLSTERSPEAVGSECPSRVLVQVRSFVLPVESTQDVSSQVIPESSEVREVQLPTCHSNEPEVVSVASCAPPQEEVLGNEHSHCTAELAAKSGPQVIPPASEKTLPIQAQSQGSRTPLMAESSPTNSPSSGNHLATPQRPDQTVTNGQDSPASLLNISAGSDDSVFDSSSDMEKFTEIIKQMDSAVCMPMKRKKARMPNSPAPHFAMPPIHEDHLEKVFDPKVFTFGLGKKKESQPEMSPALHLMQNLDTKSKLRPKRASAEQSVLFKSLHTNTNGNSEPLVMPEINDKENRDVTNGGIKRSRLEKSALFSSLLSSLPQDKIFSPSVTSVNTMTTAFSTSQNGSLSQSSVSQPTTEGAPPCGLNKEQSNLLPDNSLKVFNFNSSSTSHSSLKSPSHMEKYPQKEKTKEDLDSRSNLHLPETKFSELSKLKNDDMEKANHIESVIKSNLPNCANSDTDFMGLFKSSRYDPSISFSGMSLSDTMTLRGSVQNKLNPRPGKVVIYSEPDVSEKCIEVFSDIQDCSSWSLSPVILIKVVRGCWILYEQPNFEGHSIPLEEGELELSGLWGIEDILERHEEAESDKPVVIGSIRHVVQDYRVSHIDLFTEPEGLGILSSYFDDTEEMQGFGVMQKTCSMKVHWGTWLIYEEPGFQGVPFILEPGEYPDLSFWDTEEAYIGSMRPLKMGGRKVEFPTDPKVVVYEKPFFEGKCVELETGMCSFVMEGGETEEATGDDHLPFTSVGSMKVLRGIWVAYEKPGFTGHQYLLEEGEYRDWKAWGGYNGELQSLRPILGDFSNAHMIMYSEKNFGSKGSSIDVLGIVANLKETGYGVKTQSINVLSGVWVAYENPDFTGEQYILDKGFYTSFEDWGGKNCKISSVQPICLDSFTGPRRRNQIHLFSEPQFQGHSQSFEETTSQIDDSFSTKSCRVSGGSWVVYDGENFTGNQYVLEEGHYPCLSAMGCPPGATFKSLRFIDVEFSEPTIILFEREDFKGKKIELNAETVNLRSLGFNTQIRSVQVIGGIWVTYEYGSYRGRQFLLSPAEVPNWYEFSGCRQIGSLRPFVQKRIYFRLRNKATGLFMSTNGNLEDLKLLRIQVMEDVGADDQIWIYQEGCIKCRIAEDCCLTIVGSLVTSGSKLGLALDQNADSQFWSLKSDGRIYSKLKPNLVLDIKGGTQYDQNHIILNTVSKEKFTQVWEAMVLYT
Procedure, shortened: as §1

Measured: binding result

B1: LZTR1 R810W-FLAG (other, human, UniProt Q8N653 1-840, looked up)
chain: MAGPGSTGGQIGAAALAGGARSKVAPSVDFDHSCSDSVEYLTLNFGPFETVHRWRRLPPCDEFVGARRSKHTVVAYKDAIYVFGGDNGKTMLNDLLRFDVKDCSWCRAFTTGTPPAPRYHHSAVVYGSSMFVFGGYTGDIYSNSNLKNKNDLFEYKFATGQWTEWKIEGRLPVARSAHGATVYSDKLWIFAGYDGNARLNDMWTIGLQDRELTCWEEVAQSGEIPPSCCNFPVAVCRDKMFVFSGQSGAKITNNLFQFEFKDKTWTRIPTEHLLRGSPPPPQRRYGHTMVAFDRHLYVFGGAADNTLPNELHCYDVDFQTWEVVQPSSDSEVGGAEVPERACASEEVPTLTYEERVGFKKSRDVFGLDFGTTSAKQPTQPASELPSGRLFHAAAVISDAMYIFGGTVDNNIRSGEMYRFQFSCYPKCTLHEDYGRLWESRQFCDVEFVLGEKEECVQGHVAIVTARSRWLRRKITQARERLAQKLEQEAAPVPREAPGVAAGGARPPLLHVAIREAEARPFEVLMQFLYTDKIKYPRKGHVEDVLLIMDVYKLALSFQLCRLEQLCRQYIEASVDLQNVLVVCESAARLQLSQLKEHCLNFVVKESHFNQVIMMKEFERLSSPLIVEIVRRKQQPPPRTPLDQPVDIGTSLIQDMKAYLEGAGAEFCDITLLLDGHPRPAHKAILAARSSYFEAMFRSFMPEDGQVNISIGEMVPSRQAFESMLRYIYYGEVNMPPEDSLYLFAAPYYYGFYNNRLQAYCKQNLEMNVTVQNVLQILEAADKTQALDMKRHCLHIIVHQFTKVSKLPTLWSLSQQLLLDIIDSLASHISDKQCAELGADI
notes: Stably expressed in U87 cells by lentivirus; also called LZTR1-FLAG-R810W; LZTR1 RW; not shown: FLAG tag
binds: all assays above
